Laboratory results from US20260132219A1.

What was measured:
[1] = molecular target: human HER3 (UniProt P21860); assay: BLI; absence of human NRG1
[2] = molecular target: human HER3 (human) (UniProt Q02297); assay: BLI; presence of human NRG1

LJM-716 was tested, and the Kd [1] was < 0.001 nM and the Kd [2] was 16.8 nM.
